Laboratory results reported in article PMC8634136 (The EMBO Journal, 2021).

B2: POLE2 (natural protein, human)
chain: MAPERLRSRALSAFKLRGLLLRGEAIKYLTEALQSISELELEDKLEKIINAVEKQPLSSNMIERSVVEAAVQECSQSVDETIEHVFNIIGAFDIPRFVYNSERKKFLPLLMTNHPAPNLFGTPRDKAEMFRERYTILHQRTHRHELFTPPVIGSHPDESGSKFQLKTIETLLGSTTKIGDAIVLGMITQLKEGKFFLEDPTGTVQLDLSKAQFHSGLYTEACFVLAEGWFEDQVFHVNAFGFPPTEPSSTTRAYYGNINFFGGPSNTSVKTSAKLKQLEEENKDAMFVFLSDVWLDQVEVLEKLRIMFAGYSPAPPTCFILCGNFSSAPYGKNQVQALKDSLKTLADIICEYPDIHQSSRFVFVPGPEDPGFGSILPRPPLAESITNEFRQRVPFSVFTTNPCRIQYCTQEITVFREDLVNKMCRNCVRFPSSNLAIPNHFVKTILSQGHLTPLPLYVCPVYWAYDYALRVYPVPDLLVIADKYDPFTTTNTECLCINPGSFPRSGFSFKVFYPSNKTVEDSKLQGF
notes: POLE2, human; Stood in the structure as a subunit of m2; residues 1-527 modelled; source: Hi5 insect cells, purified as a subunit of Pol ε

What was measured:
[1] = target: the molecule itself; assay: cryo-EM structure; replisome reconstituted on fork DNA with AMP-PNP, isolated on a glycerol gradient with glutaraldehyde and BS3; 3.2 Å overall; a sample without CLASPIN solved at 3.4 Å
[2] = target: T1, human CDC45‐MCM‐GINS (CMG) helicase (human, UniProt P49736 1-904; P25205 1-808; P33991 1-863; P33992 1-734; Q14566 1-821; P33993 …); assay: co-sedimentation; native glycerol gradient without cross-linker (40 mM HEPES-NaOH pH 7.5, 150 mM NaOAc, 0.5 mM TCEP, 500 µM AMP-PNP, 3 mM Mg(OAc)2), 200,000 g, 4°C, 2 h; 100 nM CMG pre-incubated with fork DNA, 1.5-fold molar excess of the other proteins; fractions on silver-stained SDS-PAGE; details: both partners purified
T1 construct: MCM2, human; MCM3, human; the construct lacks the 45 additional N-terminal amino acids of the longer isoform used in PDB 6XTX; MCM4, human; MCM5, human; MCM6, human; MCM7, human; CDC45, human; PSF1 (GINS subunit), human; PSF2 (GINS subunit), human; PSF3 (GINS subunit), human; SLD5 (GINS subunit), human; also called hsCMG; source: Hi5 insect cells co-infected with baculoviruses for MCM2-7, GINS …

MCM5 = target: T2, MCM5 (human, UniProt P33992 1-734); assay: cryo-EM structure; replisome reconstituted on fork DNA with AMP-PNP, isolated on a glycerol gradient with glutaraldehyde and BS3; 3.2 Å overall; a sample without CLASPIN solved at 3.4 Å; details: both partners purified
T2 construct: MCM5, human; Stood in the structure as a subunit of m1; source: Hi5 insect cells, purified as a subunit of hsCMG
T2 sequence: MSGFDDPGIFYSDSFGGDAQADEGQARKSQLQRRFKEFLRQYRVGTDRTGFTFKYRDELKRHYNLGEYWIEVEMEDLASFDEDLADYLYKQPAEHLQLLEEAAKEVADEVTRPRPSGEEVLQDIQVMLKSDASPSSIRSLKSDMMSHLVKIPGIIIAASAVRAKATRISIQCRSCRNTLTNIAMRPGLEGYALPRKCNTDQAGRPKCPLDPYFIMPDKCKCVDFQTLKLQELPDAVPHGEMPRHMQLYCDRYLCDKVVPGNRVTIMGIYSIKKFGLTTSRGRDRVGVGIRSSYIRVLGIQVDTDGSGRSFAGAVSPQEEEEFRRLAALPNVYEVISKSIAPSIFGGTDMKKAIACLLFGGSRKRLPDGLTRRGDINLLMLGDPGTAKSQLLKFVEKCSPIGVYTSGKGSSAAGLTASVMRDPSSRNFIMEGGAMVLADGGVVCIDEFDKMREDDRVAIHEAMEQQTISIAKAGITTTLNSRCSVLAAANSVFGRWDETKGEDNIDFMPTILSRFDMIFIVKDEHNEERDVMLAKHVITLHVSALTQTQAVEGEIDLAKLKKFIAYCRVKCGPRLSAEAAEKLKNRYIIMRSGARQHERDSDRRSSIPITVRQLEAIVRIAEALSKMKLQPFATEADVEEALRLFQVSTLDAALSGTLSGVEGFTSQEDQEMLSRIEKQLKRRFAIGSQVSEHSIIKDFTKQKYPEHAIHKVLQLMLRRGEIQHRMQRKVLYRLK

POLE2 = target: B2; assay: as above; details: both partners purified
TIMELESS = target: T3, TIMELESS (human, UniProt Q9UNS1 1-1208); assay: as above; details: both partners purified
T3 construct: Stood in the structure as a subunit of m3; residues 7-803 modelled (527-684 not visualised)
T3 sequence: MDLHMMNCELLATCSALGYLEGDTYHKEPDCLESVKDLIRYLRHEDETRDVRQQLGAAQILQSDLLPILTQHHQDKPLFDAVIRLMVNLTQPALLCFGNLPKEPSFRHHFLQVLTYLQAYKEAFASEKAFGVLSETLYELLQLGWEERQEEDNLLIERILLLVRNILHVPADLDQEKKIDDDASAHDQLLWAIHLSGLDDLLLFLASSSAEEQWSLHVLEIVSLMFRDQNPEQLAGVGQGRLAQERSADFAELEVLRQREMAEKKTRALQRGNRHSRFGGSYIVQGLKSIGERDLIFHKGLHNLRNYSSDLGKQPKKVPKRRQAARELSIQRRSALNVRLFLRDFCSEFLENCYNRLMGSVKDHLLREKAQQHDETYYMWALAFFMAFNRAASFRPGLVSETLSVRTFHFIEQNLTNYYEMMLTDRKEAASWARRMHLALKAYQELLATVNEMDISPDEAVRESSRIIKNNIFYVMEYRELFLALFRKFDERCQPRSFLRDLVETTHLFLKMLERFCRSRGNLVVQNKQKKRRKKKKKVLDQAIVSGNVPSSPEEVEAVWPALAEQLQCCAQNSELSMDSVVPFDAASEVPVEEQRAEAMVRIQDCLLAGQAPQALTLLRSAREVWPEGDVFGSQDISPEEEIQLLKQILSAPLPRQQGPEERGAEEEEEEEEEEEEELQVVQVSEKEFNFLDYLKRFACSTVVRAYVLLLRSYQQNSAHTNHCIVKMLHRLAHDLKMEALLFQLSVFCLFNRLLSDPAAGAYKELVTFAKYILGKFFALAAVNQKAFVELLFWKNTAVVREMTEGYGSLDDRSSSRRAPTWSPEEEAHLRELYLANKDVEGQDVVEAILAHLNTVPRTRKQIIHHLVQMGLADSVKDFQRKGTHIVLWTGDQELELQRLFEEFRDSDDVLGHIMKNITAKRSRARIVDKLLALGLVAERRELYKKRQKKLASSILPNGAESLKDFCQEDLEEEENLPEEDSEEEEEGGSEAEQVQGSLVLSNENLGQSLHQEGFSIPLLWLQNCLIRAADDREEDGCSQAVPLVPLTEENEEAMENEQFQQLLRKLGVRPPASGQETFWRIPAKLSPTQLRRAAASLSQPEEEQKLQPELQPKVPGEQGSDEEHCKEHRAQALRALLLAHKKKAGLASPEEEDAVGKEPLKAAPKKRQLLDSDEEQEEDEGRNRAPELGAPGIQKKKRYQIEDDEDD

MCM7 = target: T4, MCM7 (human, UniProt P33993 1-719); assay: as above; details: both partners purified
T4 construct: MCM7, human; Stood in the structure as a subunit of m1; source: Hi5 insect cells, purified as a subunit of hsCMG
T4 sequence (P33993 whole entry): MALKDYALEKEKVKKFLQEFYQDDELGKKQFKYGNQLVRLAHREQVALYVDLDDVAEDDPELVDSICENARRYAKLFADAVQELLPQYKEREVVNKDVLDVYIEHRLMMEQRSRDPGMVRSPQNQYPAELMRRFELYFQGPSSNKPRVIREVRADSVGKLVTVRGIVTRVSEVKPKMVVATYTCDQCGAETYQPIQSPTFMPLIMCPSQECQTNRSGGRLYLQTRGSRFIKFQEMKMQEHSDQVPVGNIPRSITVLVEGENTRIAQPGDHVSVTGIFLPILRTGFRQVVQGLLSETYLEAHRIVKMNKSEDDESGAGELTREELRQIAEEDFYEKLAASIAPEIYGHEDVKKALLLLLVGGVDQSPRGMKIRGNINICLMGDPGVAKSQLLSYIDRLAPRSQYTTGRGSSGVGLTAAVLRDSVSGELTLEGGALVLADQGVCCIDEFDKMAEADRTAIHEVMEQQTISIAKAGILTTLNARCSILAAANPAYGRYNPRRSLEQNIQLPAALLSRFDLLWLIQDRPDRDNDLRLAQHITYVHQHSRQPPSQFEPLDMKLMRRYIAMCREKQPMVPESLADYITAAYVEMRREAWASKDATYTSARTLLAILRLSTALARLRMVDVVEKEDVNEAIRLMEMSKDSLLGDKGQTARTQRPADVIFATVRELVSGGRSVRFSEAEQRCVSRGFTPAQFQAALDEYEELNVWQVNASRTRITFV

B1: AND‐1 (natural protein, human)
chain: MPATRKPMRYGHTEGHTEVCFDDSGSFIVTCGSDGDVRIWEDLDDDDPKFINVGEKAYSCALKSGKLVTAVSNNTIQVHTFPEGVPDGILTRFTTNANHVVFNGDGTKIAAGSSDFLVKIVDVMDSSQQKTFRGHDAPVLSLSFDPKDIFLASASCDGSVRVWQISDQTCAISWPLLQKCNDVINAKSICRLAWQPKSGKLLAIPVEKSVKLYRRESWSHQFDLSDNFISQTLNIVTWSPCGQYLAAGSINGLIIVWNVETKDCMERVKHEKGYAICGLAWHPTCGRISYTDAEGNLGLLENVCDPSGKTSSSKVSSRVEKDYNDLFDGDDMSNAGDFLNDNAVEIPSFSKGIINDDEDDEDLMMASGRPRQRSHILEDDENSVDISMLKTGSSLLKEEEEDGQEGSIHNLPLVTSQRPFYDGPMPTPRQKPFQSGSTPLHLTHRFMVWNSIGIIRCYNDEQDNAIDVEFHDTSIHHATHLSNTLNYTIADLSHEAILLACESTDELASKLHCLHFSSWDSSKEWIIDLPQNEDIEAICLGQGWAAAATSALLLRLFTIGGVQKEVFSLAGPVVSMAGHGEQLFIVYHRGTGFDGDQCLGVQLLELGKKKKQILHGDPLPLTRKSYLAWIGFSAEGTPCYVDSEGIVRMLNRGLGNTWTPICNTREHCKGKSDHYWVVGIHENPQQLRCIPCKGSRFPPTLPRPAVAILSFKLPYCQIATEKGQMEEQFWRSVIFHNHLDYLAKNGYEYEESTKNQATKEQQELLMKMLALSCKLEREFRCVELADLMTQNAVNLAIKYASRSRKLILAQKLSELAVEKAAELTATQVEEEEEEEDFRKKLNAGYSNTATEWSQPRFRNQVEEDAEDSGEADDEEKPEIHKPGQNSFSKSTNSSDVSAKSGAVTFSSQGRVNPFKVSASSKEPAMSMNSARSTNILDNMGKSSKKSTALSRTTNNEKSPIIKPLIPKPKPKQASAASYFQKRNSQTNKTEEVKEENLKNVLSETPAICPPQNTENQRPKTGFQMWLEENRSNILSDNPDFSDEADIIKEGMIRFRVLSTEERKVWANKAKGETASEGTEAKKRKRVVDESDETENQEEKAKENLNLSKKQKPLDFSTNQKLSAFAFKQE
notes: AND-1, human; Only the trimer of SepB domains is ordered in the map; source: Hi5 insect cells (baculovirus), purified (Flag M2, MonoQ, Superdex 200)
How did the “stoichiometry N” value [1] turn out when B1 was run?
The value was 3.

Does B1 bind [2]?
Result: binds

Does B2 bind (MCM5)?
Result: binds

B3: PSF1 (natural protein, human)
chain: MFCEKAMELIRELHRAPEGQLPAFNEDGLRQVLEEMKALYEQNQSDVNEAKSGGRSDLIPTIKFRHCSLLRNRRCTVAYLYDRLLRIRALRWEYGSVLPNALRFHMAAEEMEWFNNYKRSLATYMRSLGGDEGLDITQDMKPPKSLYIEVRCLKDYGEFEVDDGTSVLLKKNSQHFLPRWKCEQLIRQGVLEHILS
notes: PSF1 (GINS subunit), human; Stood in the structure as a subunit of m1; also called GINS subunit PSF1; source: Hi5 insect cells, purified as a subunit of hsCMG
Does B3 bind (POLE2)?
Result: binds

B4: TIPIN (natural protein, human)
chain: MLEPQENGVIDLPDYEHVEDETFPPFPPPASPERQDGEGTEPDEESGNGAPVRVPPKRTVKRNIPKLDAQRLISERGLPALRHVFDKAKFKGKGHEAEDLKMLIRHMEHWAHRLFPKLQFEDFIDRVEYLGSKKEVQTCLKRIRLDLPILHEDFVSNNDEVAENNEHDVTSTELDPFLTNLSESEMFASELSRSLTEEQQQRIERNKQLALERRQAKLLSNSQTLGNDMLMNTPRAHTVEEVNTDEDQKEESNGLNEDILDNPCNDAIANTLNEEETLLDQSFKNVQQQLDATSRNITEAR
notes: TIPIN, human; Stood in the structure as a subunit of m3; residues 62-147 modelled
Which results are given for B4?
binding result (TIMELESS): binds; binding result (MCM7): binds
